Values quoted from earlier work in US11414673B2, “Hypersensitive ABA receptors having modified PP2C-binding interfaces” (THE REGENTS OF THE UNIVERSITY OF CALIFORNIA, priority 2017, dated 2022).

System: ABA responses
Conditions: Pizzio et al., Plant Physiol. 163, 441-455 (2013)

B1: PYL4^A194T: PYL4 ABA receptor with A194T mutation in its carboxyl terminus, described by Pizzio et al. (protein, UniProt O80920 1-207, looked up, variant A194T)
Abscisic acid receptor PYL4: MLAVHRPSSAVSDGDSVQIPMMIASFQKRFPSLSRDSTAARFHTHEVGPNQCCSAVIQEISAPISTVWSVVRRFDNPQAYKHFLKSCSVIGGDGDNVGSLRQVHVVSGLPAASSTERLDILDDERHVISFSVVGGDHRLSNYRSVTTLHPSPISGTVVVESYVVDVPPGNTKEETCDFVDVIVRCNLQSLAKITENTAAESKKKMSL
Which “ABA concentration needed to elicit measured ABA responses, in comparison to wild type PYL4” value does the source give for B1 here?
The value was “requires lower concentrations of ABA”.
